The text below walks through data of article PMC9245003.

What all share (experiment): SEC-MALS
The target of experiment [1] is gH/gL 7-mer nanoparticle (gH-C153T-IMX313 / gL) (Epstein-Barr virus | Gallus gallus) (UniProt P03231).
The target of experiment [2] is gH/gL 24-mer nanoparticle (gH-ferritin / gL) (Epstein-Barr virus | Helicobacter pylori) (UniProt P03231).
For experiment [3], the target named is gH/gL 60-mer nanoparticle (gH-C153T-I3 / gL) (Epstein-Barr virus) (UniProt P03231).

Substance “gH/gL 7-mer nanoparticle (gH-C153T-IMX313 / gL) (from UniProt P03231;P03212) (complex)” registered a stoichiometry N in experiment [1] of 7.

In experiment [2], “gH/gL 24-mer nanoparticle (gH-ferritin / gL) (from UniProt P03231;P03212) (complex)” yielded a stoichiometry N of 24. On to “gH/gL 60-mer nanoparticle (gH-C153T-I3 / gL) (from UniProt P03231;P03212) (complex)”, for which the stoichiometry N in experiment [3] was 60.
